± gives the standard deviation of the averaged measurements.
Tested on: Saccharomyces cerevisiae
Test: protein stability index of tFT-peptide fusion (C-terminal peptide) (PSI (0-1 scale)); higher = more stable (slower turnover)
Settings: genetic background: wild type; temperature: 30 C
Description: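 Multiplexed protein stability (MPS) profiling in S. cerevisiae. Random 12-aa peptides (tFT-X12 library) are fused to the C-terminus of a sfGFP-mCherry tandem fluorescent timer, after mCherry and a GGGS linker. Cells are FACS-sorted into 8 mCherry/sfGFP bins and deep-sequenced. The protein stability index (PSI) is the read-weighted bin average, scaled from 0 (unstable) to 1 (stable). Only peptides with >10 reads are reported; cells were grown at 30 °C in SC-His with glucose.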
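Further: PSI is a weighted mean of sequencing reads over stability bins, variants kept only with over 10 reads, mCherry proximal and sfGFP distal, peptide attached via GGGS linker.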

Row | Sequence | protein stability index
1 | DGGVPGVMVVGE | 0.644 ± 0.024
2 | DGLGLLVGAGVG | 0.623 ± 0.085
3 | DGRTYGHYKVVA | 0.697 ± 0.027
4 | DGSIGASPGRGL | 0.695 ± 0.015
5 | DGSKRDWFYNSA | 0.725 ± 0.059
6 | DGVRGDVVTGYL | 0.7131 ± 0.0057
7 | DHLQGRPDITDI | 0.72 ± 0.09
8 | DIAYPRITDSRC | 0.714 ± 0.045
9 | DIQINENIYKNK | 0.687 ± 0.048
10 | DISSSILEIFTS | 0.7031 ± 0.0032
11 | DKERRSKNRERR | 0.698 ± 0.07
12 | DKKHRAPGIKIV | 0.5008 ± 0.0018
13 | DKKPVQVIIIRK | 0.667 ± 0.1
14 | DKNRNKKKKYER | 0.641 ± 0.038
15 | DLGIFVSQQIEV | 0.6065 ± 0.0048
16 | DLIYRLHTANWR | 0.809 ± 0.034
17 | DLLTRAYPWPAE | 0.692 ± 0.024
18 | DLRHLLVPVPRI | 0.7066 ± 0.0022
19 | DLSCCVFLCLFF | 0.513 ± 0.044
20 | DLSLQSLRSPIT | 0.672 ± 0.022
21 | DLSNVITKMFVI | 0.6542 ± 0.0036
22 | DLTITFYKSGQL | 0.715 ± 0.032
23 | DLVLVSSQMPFA | 0.683 ± 0.039
24 | DMGGLKACRGVG | 0.5695 ± 0.0028
25 | DMTCSMEQHEDN | 0.663 ± 0.019

Row | Sequence | protein stability index
26 | DMTVICDVAGQT | 0.652 ± 0.019
27 | DNAFATAYWIVV | 0.647 ± 0.054
28 | DNCIANLESGSL | 0.691 ± 0.008
29 | DNHGWKVEGRLL | 0.686 ± 0.015
30 | DNKGKDEESERR | 0.709 ± 0.038
31 | DPAASNTTTRRL | 0.686 ± 0.064
32 | DPAKRTLTRSRR | 0.673 ± 0.0079
33 | DPARNDTTTETI | 0.666 ± 0.027
34 | DPDPNHATGKIC | 0.616 ± 0.014
35 | DPGGLSNYSRAS | 0.67 ± 0.036
36 | DPHRTRPRITLP | 0.715 ± 0.044
37 | DPISNVDVTKIR | 0.6571 ± 0.0044
38 | DPPLRPSSLPPP | 0.653 ± 0.0084
39 | DPPSVPSPLPTS | 0.689 ± 0.016
40 | DQDAPNRPVDSS | 0.695 ± 0.018
41 | DQKSGCPVRIYR | 0.623 ± 0.029
42 | DQMVILSHYSVR | 0.683 ± 0.038
43 | DQVGWVAGVDAR | 0.707 ± 0.048
44 | DRGGDVGRCAGF | 0.677 ± 0.011
45 | DRLPRHLPSLLP | 0.715 ± 0.037
46 | DRMYDELFTKCC | 0.619 ± 0.031
47 | DRNKRDERTSEE | 0.744 ± 0.026
48 | DRPRPLPTPLPP | 0.5905 ± 0.0021
49 | DRQRVGYRGPPH | 0.639 ± 0.096
50 | DRVFLVDMGVMW | 0.6632 ± 0.0014

Row | Sequence | protein stability index
51 | DRYSVGCGVSEG | 0.7038 ± 0.002
52 | DSAWSWTLLFVG | 0.63 ± 0.026
53 | DSIVHSFYIPLL | 0.666 ± 0.048
54 | DSKRIQSRLYYS | 0.66 ± 0.027
55 | DSRSPSTTLIPL | 0.6623 ± 0.0018
56 | DSSPIESAVAPS | 0.716 ± 0.023
57 | DSTMWDALSVCV | 0.621 ± 0.026
58 | DSVFTKALEPAW | 0.722 ± 0.04
59 | DTDHSSNCELPG | 0.696 ± 0.083
60 | DTGGGPQTSRWD | 0.715 ± 0.17
61 | DTSGNQLQDPDI | 0.706 ± 0.029
62 | DVAYSSSNAVHR | 0.669 ± 0.045
63 | DVESGRVDLGEE | 0.787 ± 0.15
64 | DVFLFPGVYFRM | 0.594 ± 0.012
65 | DVGFGWGCGVGG | 0.736 ± 0.014
66 | DVGFGWGGGVGG | 0.76 ± 0.014
67 | DVGSPFSISVQS | 0.647 ± 0.045
68 | DVLLRGAVQPIC | 0.659 ± 0.0098
69 | DVRNVCNISDEV | 0.654 ± 0.022
70 | DVVGGCEKWWER | 0.734 ± 0.049
71 | DVVLVSPCGQMW | 0.725 ± 0.21
72 | DWSGTISVSSLR | 0.672 ± 0.1
73 | DWTNLTVITGDT | 0.674 ± 0.035
74 | DYCARQRLLDQF | 0.685 ± 0.11
75 | DYPQWWEEQHVP | 0.797 ± 0.019

Row | Sequence | protein stability index
76 | DYSRCGCRLSGK | 0.677 ± 0.03
77 | EAGESKNVDSLL | 0.638 ± 0.0081
78 | EAIQDCERGPCW | 0.698 ± 0.0081
79 | EAKKNNIVEKQR | 0.681 ± 0.015
80 | EAPRTPPSVPVN | 0.7866 ± 0.0051
81 | EAVRASSPAGLP | 0.7017 ± 0.0023
82 | ECCDSGLCWLTF | 0.754 ± 0.034
83 | ECGRWLGRGVRG | 0.735 ± 0.045
84 | EDFKTKQKKKKE | 0.709 ± 0.077
85 | EDKVRGQGSRHN | 0.722 ± 0.011
86 | EDRYIGITRYKD | 0.682 ± 0.11
87 | EDSKLVSRLSRS | 0.712 ± 0.082
88 | EDTYSGKGSRGV | 0.774 ± 0.047
89 | EEECSTPWGIRG | 0.635 ± 0.048
90 | EELTVLCGLLKT | 0.64 ± 0.04
91 | EEQKKIRKRPEK | 0.69686 ± 0.00066
92 | EERGGDNVTVCG | 0.745 ± 0.031
93 | EERLGIIVRSDR | 0.635 ± 0.079
94 | EFAYQSRYKVGR | 0.694 ± 0.058
95 | EFFSDLLEMIRL | 0.725 ± 0.033
96 | EFSILLPLPFFR | 0.656 ± 0.076
97 | EGDGLGGGGQGG | 0.685 ± 0.0069
98 | EGDQSRMTQPRG | 0.647 ± 0.034
99 | EGGARGCGEGSQ | 0.656 ± 0.015
100 | EGGEWGSFGSAV | 0.704 ± 0.0094

Row | Sequence | protein stability index
101 | EGGGGGGAPRVR | 0.752 ± 0.093
102 | EGGGGGPGDARR | 0.663 ± 0.025
103 | EGLSYSFGDCPM | 0.754 ± 0.03
104 | EGRAAETFVCAI | 0.6429 ± 0.0055
105 | EGRSVWVVGRAV | 0.652 ± 0.045
106 | EGSPIVNSLALD | 0.668 ± 0.017
107 | EGVCEIEMRGSR | 0.788 ± 0.021
108 | EGVGGGRWCGRG | 0.666 ± 0.055
109 | EGVGRGCSGGCW | 0.713 ± 0.055
110 | EGYRDMAFKLCK | 0.697 ± 0.0093
111 | EHLYIYGKDKWK | 0.602 ± 0.025
112 | EHMEYKSMVSCA | 0.51 ± 0.059
113 | EHRPCQGVMYII | 0.522 ± 0.0026
114 | EIDMLVVRNLKH | 0.664 ± 0.044
115 | EIKGTQRKGGKR | 0.726 ± 0.055
116 | EINIMKIIYRKI | 0.666 ± 0.044
117 | EIPGPLALSPAG | 0.736 ± 0.015
118 | EKCCGAAVMARC | 0.561 ± 0.015
119 | EKIRSARKKTIH | 0.735 ± 0.0082
120 | EKKEKTPKPKPR | 0.685 ± 0.025
121 | EKKKKKKKKKKK | 0.7721 ± 0.003
122 | EKKKNKTKKKTN | 0.688 ± 0.056
123 | EKKKTKKKTIKK | 0.636 ± 0.03
124 | EKQKGIVQADKI | 0.665 ± 0.046
125 | EKVRICKWKGGI | 0.616 ± 0.061

Row | Sequence | protein stability index
126 | EKWMRYLARCDI | 0.6882 ± 0.0012
127 | EKYELHEVEKEI | 0.597 ± 0.049
128 | ELHEETEKSKYR | 0.74 ± 0.11
129 | ELLTVQLHKAAR | 0.706 ± 0.0076
130 | ELRLYFPRLFQF | 0.496 ± 0.0078
131 | ELSLSCPPLETP | 0.768 ± 0.034
132 | ELSRLLPASFSL | 0.696 ± 0.032
133 | ELVGGEGIGGGL | 0.581 ± 0.024
134 | EMCRCVEGREEG | 0.6704 ± 0.0036
135 | ENKKKKKNIEKK | 0.702 ± 0.04
136 | ENRNKSYEISRP | 0.7015 ± 0.0052
137 | EPGLIPVAGTFF | 0.76 ± 0.011
138 | EPNEKEKNKEVK | 0.704 ± 0.0079
139 | EPPLPEPPLSRS | 0.705 ± 0.023
140 | EQDDGARMIRRV | 0.683 ± 0.027
141 | EQDLSTKVKRST | 0.65 ± 0.12
142 | ERGAEGKKEPEK | 0.6534 ± 0.0061
143 | ERGGGRRRLSNA | 0.656 ± 0.062
144 | ERGRKGGAGARD | 0.6439 ± 0.0047
145 | ERINFSRRDFDC | 0.805 ± 0.059
146 | ERKNRKIRREKK | 0.774 ± 0.16
